The chains are these.
B1: anti-hIGF CDR-grafted antibody CamHV0/LV0 (antibody, human IgG1, V domains shown)
VH: QVQLVESGGGVVQPGRSLRLSCAASGFTFSNYYMTWVRQAPGKGLEWVAYISSGGGSTYYRDSVKGRFTISRDNSKNTLYLQMNSLRAEDTAVYYCAREDYGYWFAYWGQGTLVTVSS
VL: DIVMTQSPDSLAVSLGERATINCRASSSVSYMHWYQQKPGQPPKLLIYGTSKLASGVPDRFSGSGSGTDFTLTISSLQAEDVAVYYCLQRSSYPPTFGQGTKVEIK
notes: Human IgG1, kappa (pKANTEX93); also called CmaHV0/LV0
B2: anti-hIGF CDR-grafted antibody CamHV0/NYPLL3A11 (antibody, human IgG1, V domains shown)
VH: B1 VH
VL: B1 VL with N22T, Y35F, P42S, L45P, L46W, D69S, F70Y, T71S, V82A, V84T
B3: anti-hIGF CDR-grafted antibody QGAR/PLLDFT (antibody, human IgG1, V domains shown)
VH: B1 VH with Q1E, G42T, A97T, R98T
VL: B1 VL with P42S, L45P, L46W, D69S, F70Y, T71S
notes: Human IgG1, kappa (pKANTEX93)
B4: anti-hIGF CDR-grafted antibody QAR/LV0 (antibody, human IgG1, V domains shown)
VH: B1 VH with Q1E, A97T, R98T
VL: B1 VL
notes: Human IgG1, kappa (pKANTEX93); also called QAV/LV0
B5: anti-hIGF CDR-grafted antibody QGAR/LV0 (antibody, human IgG1, V domains shown)
VH: B1 VH with Q1E, G42T, A97T, R98T
VL: B1 VL
notes: Human IgG1, kappa (pKANTEX93)
B6: anti-hIGF CDR-grafted antibody QGAR/PLDFT (antibody, human IgG1, V domains shown)
VH: B1 VH with Q1E, G42T, A97T, R98T
VL: B1 VL with P42S, L45P, D69S, F70Y, T71S
notes: Human IgG1, kappa (pKANTEX93)
B7: anti-hIGF human chimeric antibody KM3002 (antibody, human IgG1, V domains shown)
VH: EVHLVESGGGLVQPGRSLKLSCAASGFTFSNYYMTWVRQAPTKGLEWVAYISSGGGSTYYRDSVKGRFTISRDNAKSTLYLQMDSLRSEDTATYYCTTEDYGYWFAYWGQGTLVTVSS
VL: EIVLTQSPTTMAASPGEKVTITCRASSSVSYMHWFQQKSGTSPKPWIYGTSKLASGVPDRFSGSGSGTSYSLTISSMEAEDAATYYCLQRSSYPPTFGAGTKLELK
notes: V regions of KM1468 on human IgG1, kappa constant regions (vector pKANTEX93); also called anti-hIGF chimeric antibody KM3002
B8: anti-hIGF CDR-grafted antibody QGAR/NYPLL3A11 (antibody, V domains shown)
VH: B1 VH with Q1E, G42T, A97T, R98T
VL: B1 VL with N22T, Y35F, P42S, L45P, L46W, D69S, F70Y, T71S, V82A, V84T
notes: Human IgG1, kappa (pKANTEX93)

Positions count from the first letter of the chain named.

One experiment deals with T1, human insulin-like growth factor-II (human, UniProt P01344 25-91).
T1 construct: also called hIGF-II; IGF-II
T1 sequence (P01344 25-91 limits assumed): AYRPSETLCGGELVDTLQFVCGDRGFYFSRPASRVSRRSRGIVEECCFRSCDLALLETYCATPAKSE
Nature of the experiment: SPR (Biacore 2000), hIGF-II amine-coupled on CM-5, antibody as analyte, 25 C. How it is done:
(§1) For diluting samples and as reaction buffers in measurement, HBS-EP (10 mM HEPES, 150 mM NaCl, 3 mM EDTA, 0.005% Tween 20 pH 7.4) (manufactured by Biacore) was used.
(§2) Using an amine coupling kit (manufactured by Biacore), recombinant hIGF-I (manufactured by Fujisawa Pharmaceutical Co., Ltd.) and hIGF-II (manufactured by R & D) were immobilized at 18.5 pg/mm² or 26.7 pg/mm², respectively, on sensor tip CM-5 (manufactured by Biacore). After various antibodies which were diluted 5 steps in 2-fold serial dilutions as analytes added at a flow of 5 μl/minute for 4 minutes to observe a binding reaction, the dissociation reaction was subsequently observed over 5 minutes. After the dissociation reaction, 5 μl of 30 mM hydrochloric acid was added once, to regenerate the sensor chip surface. The reaction was done at 25° C. Based on the reaction curves at various concentrations, the binding constant Kass and dissociation constant Kdiss were calculated, to calculate the binding constants KA (M⁻¹) of these various antibodies.
(In SPR one partner is held on a chip, and binding of the other changes the refractive index at the surface.)
Regarding B1, the Ka stood at 3.9e+08 M⁻¹.

Take B2: the Ka was 2.1e+09 M⁻¹.

B3 had a Ka of 3.52e+09 M⁻¹.

B4: the Ka was 4.5e+08 M⁻¹.

On to B5, for which the Ka worked out at 1.75e+09 M⁻¹.

B6 yielded a Ka of 4.02e+09 M⁻¹.

For B7, the Ka is 2.24e+09 M⁻¹.

For the molecule B8, the Ka was determined as 3.96e+09 M⁻¹.

The target of a further experiment is T2, human insulin-like growth factor-I (human, UniProt P05019 49-118).
T2 construct: mature; In the ELISAs it was coated as a conjugate with methylated BSA; in Biacore it was amine-coupled to a CM-5 chip; also called hIGF-I; IGF-I
T2 sequence (P05019 49-118): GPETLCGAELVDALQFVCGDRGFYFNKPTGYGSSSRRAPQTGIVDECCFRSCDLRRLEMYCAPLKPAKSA
The experiment can be described thus: SPR (Biacore 2000), hIGF-I amine-coupled on CM-5, antibody as analyte, 25 C. How it is done: as §1, §2
For the molecule B1, the Ka was found to be 1.7e+08 M⁻¹.

Regarding B2, the Ka is 1.32e+09 M⁻¹.

B3 gave a Ka of 2.78e+09 M⁻¹.

With B4, the Ka was 1.7e+08 M⁻¹.

B5: the Ka amounted to 7.8e+08 M⁻¹.

B6 yielded a Ka of 2.31e+09 M⁻¹.

Take B7: the Ka is 2.94e+09 M⁻¹.

For the molecule B8, the Ka is 2.32e+09 M⁻¹.

Another experiment has as its target T1, human insulin-like growth factor-II. Nature of the experiment: SPR (Biacore 2000).
In the case of B1, the “KA relative to KM3002 (fold)” value was around 0.167 fold.

On to B2, for which the “KA relative to CamHV0/LV0 (fold)” value was around 5 fold.

As for B5, the “KA relative to CamHV0/LV0 (fold)” value was around 5 fold.

With B8, the “KA relative to CamHV0/LV0 (fold)” value was around 10 fold.

The target in another experiment is T2, human insulin-like growth factor-I. The experiment can be described thus: SPR (Biacore 2000).
Consider B1, for which the “KA relative to KM3002 (fold)” value was around 0.059 fold.

Consider B2, for which the “KA relative to CamHV0/LV0 (fold)” value is around 8 fold.

B5: the “KA relative to CamHV0/LV0 (fold)” value is around 5 fold.

For B8, the “KA relative to CamHV0/LV0 (fold)” value was around 14 fold.

A further experiment shares this target. Nature of the experiment: binding ELISA on coated mBSA-hIGF-I. How it is done: A conjugate of hIGF-I (manufactured by Fujisawa Co., Ltd.) with methylated BSA (manufactured by SIGMA) was prepared and used as an antigen to be immobilized on an ELISA plate. That is, methylated BSA dissolved in distilled water was mixed with hIGF to a ratio of methylated BSA:hIGF-I=1:8 (weight ratio) at 4° C. The resulting mixture was agitated with a vortex mixer for 10 seconds, to obtain a conjugate of hIGF-I with methylated BSA (hereinafter referred to as mBSA-hIGF-I).
The above mBSA-hIGF-I was dispensed at 50 μl/well on a 96-well ELISA plate (manufactured by Greiner) to give a hIGF-I concentration of 20 ng/ml and then left overnight at 4° C. for immobilization. After washing with PBS, PBS containing 1% BSA (hereinafter referred to as BSA-PBS) was dispensed in 100 μl/well to react at room temperature for 1 hour to carry out blocking of the remaining active groups. Discarding BSA-PBS, the culture supernatant of each of the various transformants or each of various purified hIGF CDR-grafted antibodies was dispensed at 50 μl/well to react at room temperature for 2 hours. After the reaction, each well was washed with PBS containing 0.05% Tween 20 (hereinafter referred to as Tween-PBS). Then, HRP-labeled anti-human IgG antibody (manufactured by American Qualex) in 2000-fold dilution was dispensed at 50 μl/well as a secondary antibody to react at room temperature for 1 hour.
For orientation: ELISA stands for enzyme-linked immunosorbent assay.
As to B1, the “binding activity relative to KM3002 (fold)” value was around 0.02 fold.

Take B2: the “binding activity relative to CamHV0/LV0 (fold)” value was around 25 fold and the “binding activity relative to KM3002 (fold)” value is around 0.5 fold.

Turning to B5, the “binding activity relative to CamHV0/LV0 (fold)” value was around 25 fold and the “binding activity relative to KM3002 (fold)” value was around 0.5 fold.

Source of the values: patent US20060240015A1 (Kyowa Kirin, published 2006).
